This note sets out measurements from IntAct's records for PubMed 25350732.

First the molecules themselves.
B1: Probable peptidoglycan glycosyltransferase FtsW (Caulobacter crescentus), B8H092 (parent)
chain: MASNATHAFARTDRTALGLWWWTTDRWLLGATALLVTLGMLLSFASSPAAAQRIGIDDQFHFALRMCFFATASSVLMLITSMLSPRDIRRAAFFIYLGAIAVMIALPFIGHNAKGATRWLQFAGFTLQPSEFMKPALIVLVSWMFAEGQKGEGVPGVSIAFLLYFIAVALLLIQPDVGQTVLITIAFGAAFWMAGVPISWIMGLGGVALAGLGSTYFLFDHVHARVQKFLSPDQADTHQITRAAEAIRAGGLFGRGPGEGVMKRHVPDLHTDFIYSVAAEEYGLIFSWSLIGLFAFVVVRGLYKAMKLNDPFEQVAAAGLFVLVGQQALINIAVNLNMIPTKGMTLPFISYGGSSMLAMGLTLGMALALLRKRPGAYGASGEFGFGRADA
partner: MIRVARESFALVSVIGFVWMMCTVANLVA

Variants of B1 are the subject of this experiment. The note with it: with sida_cauvn sidA.
Consider MASNATHAFARTDRTALGLWWWTTDRWLLGKTALLVTLGMLLSFASSPAAAQRIGIDDQFHFALRMCFFATASSVLMLITSMLSPRDIRRAAFFIYLGAIAVMIALPFIGHNAKGATRWLQFAGFTLQPSEFMKPALIVLVSWMFAEGQKGEGVPGVSIAFLLYFIAVALLLIQPDVGQTVLITIAFGAAFWMAGVPISWIMGLGGVALAGLGSTYFLFDHVHARVQKFLSPDQADTHQITRAAEAIRAGGLFGRGPGEGVMKRHVPDLHTDFIYSVAAEEYGLIFSWSLIGLFAFVVVRGLYKAMKLNDPFEQVAAAGLFVLVGQQALINIAVNLNMIPTKGMTLPFISYGGSSMLAMGLTLGMALALLRKRPGAYGASGEFGFGRADA [A31K], for which the “effect of a mutation on the interaction” value was “disrupting interaction strength”.
